{"source": "patent US20180133314A1", "about": "(Daiichi Sankyo, published 2018)", "key": {"[1]": {"molecular_target": "T1, human FGFR1 IIIc variant protein (human, UniProt P11362 22-822)", "T1 sequence (P11362 22-822 limits assumed, change not shown)": "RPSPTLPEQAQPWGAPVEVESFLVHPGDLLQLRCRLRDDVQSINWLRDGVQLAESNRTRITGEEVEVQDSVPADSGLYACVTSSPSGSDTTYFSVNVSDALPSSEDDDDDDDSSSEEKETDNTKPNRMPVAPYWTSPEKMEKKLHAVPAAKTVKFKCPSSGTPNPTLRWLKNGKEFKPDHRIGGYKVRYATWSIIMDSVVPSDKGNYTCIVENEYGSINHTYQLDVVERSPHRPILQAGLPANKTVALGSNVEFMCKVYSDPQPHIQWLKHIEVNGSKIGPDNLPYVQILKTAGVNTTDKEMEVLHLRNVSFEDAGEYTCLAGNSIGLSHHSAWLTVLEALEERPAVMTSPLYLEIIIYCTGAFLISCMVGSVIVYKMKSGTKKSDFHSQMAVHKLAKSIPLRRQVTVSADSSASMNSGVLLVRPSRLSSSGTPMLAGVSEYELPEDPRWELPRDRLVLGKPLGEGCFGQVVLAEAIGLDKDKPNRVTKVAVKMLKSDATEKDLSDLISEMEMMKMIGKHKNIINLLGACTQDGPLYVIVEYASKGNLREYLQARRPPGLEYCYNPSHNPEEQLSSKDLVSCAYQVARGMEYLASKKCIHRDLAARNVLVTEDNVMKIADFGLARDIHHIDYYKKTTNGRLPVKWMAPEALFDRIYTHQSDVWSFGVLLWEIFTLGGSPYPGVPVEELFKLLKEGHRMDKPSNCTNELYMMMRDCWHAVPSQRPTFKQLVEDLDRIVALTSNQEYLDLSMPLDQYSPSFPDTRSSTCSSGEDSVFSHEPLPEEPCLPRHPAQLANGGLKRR", "assay": "immunostaining of formalin-fixed, paraffin-embedded transfected 293alpha cell blocks (denatured), proteinase K retrieval"}, "[2]": {"molecular_target": "T2, human FGFR2 IIIb variant protein (human, UniProt P21802-3 22-822)", "T2 construct": "whole, on cells; also called hFGFR2 IIIb", "T2 sequence (P21802 other isoform, or with tags, fused parts or gaps mutant limits assumed)": "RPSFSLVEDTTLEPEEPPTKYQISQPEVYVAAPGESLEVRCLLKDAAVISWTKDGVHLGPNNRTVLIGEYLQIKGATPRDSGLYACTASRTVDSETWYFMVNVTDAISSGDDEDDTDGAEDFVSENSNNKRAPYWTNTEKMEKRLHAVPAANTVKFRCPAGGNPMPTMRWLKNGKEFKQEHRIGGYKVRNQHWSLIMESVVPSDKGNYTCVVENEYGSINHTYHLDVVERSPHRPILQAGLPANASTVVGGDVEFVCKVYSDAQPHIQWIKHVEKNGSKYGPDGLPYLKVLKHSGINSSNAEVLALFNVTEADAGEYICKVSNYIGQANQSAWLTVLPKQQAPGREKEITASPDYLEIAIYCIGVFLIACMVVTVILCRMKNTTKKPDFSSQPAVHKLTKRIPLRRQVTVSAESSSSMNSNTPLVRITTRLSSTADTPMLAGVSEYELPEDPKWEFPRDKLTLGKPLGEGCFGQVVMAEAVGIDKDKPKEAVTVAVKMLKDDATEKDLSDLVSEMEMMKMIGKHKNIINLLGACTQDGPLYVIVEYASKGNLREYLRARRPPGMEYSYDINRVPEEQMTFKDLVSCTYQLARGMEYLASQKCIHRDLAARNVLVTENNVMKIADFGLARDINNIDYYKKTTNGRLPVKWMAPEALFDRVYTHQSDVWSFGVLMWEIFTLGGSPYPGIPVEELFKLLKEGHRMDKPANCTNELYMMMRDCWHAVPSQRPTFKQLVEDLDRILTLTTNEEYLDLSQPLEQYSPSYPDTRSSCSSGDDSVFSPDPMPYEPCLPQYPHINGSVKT", "assay": "immunostaining of formalin-fixed, paraffin-embedded transfected 293alpha cell blocks (denatured), proteinase K retrieval"}, "[3]": {"molecular_target": "T3, human FGFR3 IIIc variant protein (human, UniProt P22607 23-806)", "T3 sequence (P22607 23-806 limits assumed, change not shown)": "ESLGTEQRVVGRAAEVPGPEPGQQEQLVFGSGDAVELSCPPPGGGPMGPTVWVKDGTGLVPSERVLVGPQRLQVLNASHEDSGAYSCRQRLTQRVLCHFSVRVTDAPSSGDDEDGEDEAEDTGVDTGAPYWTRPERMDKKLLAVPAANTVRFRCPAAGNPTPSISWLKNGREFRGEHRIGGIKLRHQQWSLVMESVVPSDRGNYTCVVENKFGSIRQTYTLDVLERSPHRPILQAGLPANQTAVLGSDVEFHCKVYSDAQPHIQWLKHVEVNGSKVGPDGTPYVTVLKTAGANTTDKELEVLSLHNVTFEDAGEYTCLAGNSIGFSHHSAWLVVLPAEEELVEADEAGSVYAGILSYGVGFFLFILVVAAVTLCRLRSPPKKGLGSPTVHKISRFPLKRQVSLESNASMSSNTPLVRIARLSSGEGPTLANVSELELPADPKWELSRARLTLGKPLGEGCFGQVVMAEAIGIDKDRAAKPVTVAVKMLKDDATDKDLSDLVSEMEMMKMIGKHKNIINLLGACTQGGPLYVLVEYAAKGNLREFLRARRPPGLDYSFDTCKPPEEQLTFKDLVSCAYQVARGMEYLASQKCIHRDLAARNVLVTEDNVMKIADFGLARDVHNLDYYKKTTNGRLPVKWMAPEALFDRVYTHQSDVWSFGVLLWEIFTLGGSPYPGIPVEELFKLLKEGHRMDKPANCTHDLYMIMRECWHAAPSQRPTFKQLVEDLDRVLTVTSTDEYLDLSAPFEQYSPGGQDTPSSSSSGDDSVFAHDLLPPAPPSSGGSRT", "assay": "immunostaining of formalin-fixed, paraffin-embedded transfected 293alpha cell blocks (denatured), proteinase K retrieval"}, "[4]": {"molecular_target": "T4, human FGFR2 IIIc variant protein (human, UniProt P21802 22-821)", "T4 construct": "also called hFGFR2 IIIc", "T4 sequence (P21802 22-821 limits assumed, change not shown)": "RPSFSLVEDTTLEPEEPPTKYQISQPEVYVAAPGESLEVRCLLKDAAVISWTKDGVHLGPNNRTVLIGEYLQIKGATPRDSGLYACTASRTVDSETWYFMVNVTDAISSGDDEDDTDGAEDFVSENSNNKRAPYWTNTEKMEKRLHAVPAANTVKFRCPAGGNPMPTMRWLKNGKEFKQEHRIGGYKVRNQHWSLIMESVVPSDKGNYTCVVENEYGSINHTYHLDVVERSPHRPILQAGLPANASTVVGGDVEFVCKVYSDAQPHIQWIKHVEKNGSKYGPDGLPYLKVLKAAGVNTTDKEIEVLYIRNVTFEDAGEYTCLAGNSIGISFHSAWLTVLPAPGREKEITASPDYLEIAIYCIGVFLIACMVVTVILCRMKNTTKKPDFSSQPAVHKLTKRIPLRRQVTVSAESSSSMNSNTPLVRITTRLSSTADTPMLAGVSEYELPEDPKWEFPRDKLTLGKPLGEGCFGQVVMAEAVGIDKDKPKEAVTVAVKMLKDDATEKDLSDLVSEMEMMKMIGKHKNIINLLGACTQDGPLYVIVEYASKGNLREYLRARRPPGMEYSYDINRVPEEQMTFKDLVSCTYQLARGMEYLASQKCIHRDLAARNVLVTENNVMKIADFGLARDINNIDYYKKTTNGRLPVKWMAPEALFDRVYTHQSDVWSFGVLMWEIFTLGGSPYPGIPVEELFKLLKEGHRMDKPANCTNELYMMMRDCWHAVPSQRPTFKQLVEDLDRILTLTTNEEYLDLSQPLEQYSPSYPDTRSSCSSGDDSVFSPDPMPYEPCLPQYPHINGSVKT", "assay": "flow cytometry, hybridoma culture supernatant on transfected HEK293T cells", "description": "HEK293T cells were inoculated at a density of 5×10⁴ cells/cm² to a 225-cm² flask (manufactured by Sumitomo Bakelite Co., Ltd.) and cultured overnight at 37° C. under 5% CO₂ conditions in a DMEM medium containing 10% FBS. On the next day, the pcDNA-DEST40-FGFR2 IIIc, the pcDNA-DEST40-FGFR2 IIIb or a control pcDNA-DEST40 was transfected to the HEK293T cells using Lipofectamine 2000, and the cells were further cultured overnight at 37° C. under 5% CO₂ conditions. On the next day, the expression vector-transfected HEK293T cells were treated with TrypLE Express (manufactured by Life Technologies Corp.), washed with DMEM containing 10% FBS, and then suspended in PBS containing 5% FBS. The obtained cell suspension was used in flow cytometry analysis.\nThe pcDNA-DEST40-FGFR2 IIIc and pcDNA-DEST40-FGFR2 IIIb binding specificity of the antibody produced by each hybridoma determined to be positive by Cell-ELISA in Example 1)-4 was further confirmed by flow cytometry. Each HEK293T cell suspension prepared in Example 1)-5-1 was centrifuged to remove a supernatant. […] The data was analyzed using Flowjo (manufactured by Tree Star Inc.). After removal of 7-aminoactinomycin D-positive dead cells by gating, the FITC fluorescence intensity of live cells was plotted to a histogram."}, "[5]": {"molecular_target": "T2, human FGFR2 IIIb variant protein", "assay": "flow cytometry on transfected HEK293T cells (non-denatured)", "description": "(§1) The binding specificity of the mouse chimeric FR2-2nd_#028 and the mouse chimeric FR2-2nd_#023 prepared in Example 3)-7 for non-denatured molecules of the FGFR family was confirmed by flow cytometry. Each HEK293T cell suspension prepared in Example 3)-8-1 was centrifuged to remove a supernatant. Then, the pcDNA-DEST40-FGFR1 IIIb-, pcDNA-DEST40-FGFR1 IIIc-, pcDNA-DEST40-FGFR2 IIIb-, pcDNA-DEST40-FGFR2 IIIc-, pcDNA-DEST40-FGFR3 IIIb-, pcDNA-DEST40-FGFR3 IIIc-, pcDNA-DEST40-FGFR4-, or pcDNA-DEST40-transfected HEK293T cells were suspended by the addition of a negative control mouse IgG1 (manufactured by R&D Systems, Inc.) or the mouse chimeric FR2-2nd_#028 or the mouse chimeric FR2-2nd_#023 adjusted to 5 μg/ml, and left standing at 4° C. for 1 hour. The cells were washed once with PBS containing 5% FBS, then suspended by the addition of Fluorescein-Conjugated Goat IgG Fraction to Mouse IgG (manufactured by MP Biomedicals, Inc.) diluted 500-fold with PBS containing 5% FBS, and left standing at 4° C. for 1 hour. […] The data was analyzed using Flowjo (manufactured by Tree Star Inc.). After removal of 7-aminoactinomycin D-positive dead cells by gating, the average fluorescence intensity (MFI) of the FITC of live cells was calculated (FIG. 1)."}, "[6]": {"molecular_target": "T4, human FGFR2 IIIc variant protein", "assay": "immunostaining of formalin-fixed, paraffin-embedded transfected 293alpha cell blocks (denatured), 15 µg/mL", "description": "The cells were transfected with the FGFR1 IIIb, FGFR1 IIIc, FGFR2 IIIb, FGFR2 IIIc, FGFR3 IIIb, FGFR3 IIIc, or FGFR4 expression vector constructed in Examples 1)-3-1, 1)-3-2, and 1)-3-3 or an empty vector, i.e., pcDNA-DEST40-FGFR1 IIIb, pcDNA-DEST40-FGFR1 IIIc, pcDNA-DEST40-FGFR2 IIIb, pcDNA-DEST40-FGFR2 IIIc, pcDNA-DEST40-FGFR3 IIIb, pcDNA-DEST40-FGFR3 IIIc, pcDNA-DEST40-FGFR4, or pcDNA-DEST40 using FuGENE 6 (manufactured by Roche Diagnostics K.K.) and cultured for two nights at 37° C. under 5% CO₂ conditions. The obtained cells were recovered using TrypLE Express (manufactured by Life Technologies Corp.) and centrifuged to obtain a pellet, which was then washed once with PBS and centrifuged. The resulting pellet was fixed in 20% neutral buffered formalin.\nEach sample was stained using an automatic staining apparatus (LEICA BOND-III; manufactured by Leica Biosystems Nussloch GmbH). For deparaffinization, the sample was heated to 72° C., then Bond Dewax Solution (manufactured by Leica Biosystems Nussloch GmbH) was added thereto, and the sample was incubated for 30 seconds, followed by addition of ethanol and washing 4 times with Bond Wash Solution (manufactured by Leica Biosystems Nussloch GmbH). Enzyme Proteinase K (IHC) (manufactured by Leica Biosystems Nussloch GmbH) diluted 200-fold was added thereto, and the sample was incubated at 37° C. for 5 minutes. […]"}, "[7]": {"molecular_target": "T1, human FGFR1 IIIc variant protein", "assay": "immunostaining of formalin-fixed, paraffin-embedded transfected 293alpha cell blocks (denatured), heat retrieval"}, "[8]": {"molecular_target": "T3, human FGFR3 IIIc variant protein", "assay": "immunostaining of formalin-fixed, paraffin-embedded transfected 293alpha cell blocks (denatured), heat retrieval"}, "[9]": {"molecular_target": "T2, human FGFR2 IIIb variant protein", "assay": "immunostaining of formalin-fixed, paraffin-embedded blocks of 293alpha cells forced to express FGFR2 IIIb; antibody at 15 ug/mL, heat retrieval"}, "[10]": {"molecular_target": "T4, human FGFR2 IIIc variant protein", "assay": "immunostaining of formalin-fixed, paraffin-embedded blocks of 293alpha cells forced to express FGFR2 IIIc; antibody at 15 ug/mL, heat retrieval"}, "[11]": {"molecular_target": "T2, human FGFR2 IIIb variant protein", "assay": "immunostaining of formalin-fixed, paraffin-embedded blocks of 293alpha cells forced to express FGFR2 IIIb; antibody at 15 ug/mL, heat retrieval", "remark": "listed apart in the source"}, "[12]": {"molecular_target": "T3, human FGFR3 IIIc variant protein", "assay": "flow cytometry on transfected HEK293T cells (non-denatured)", "description": "as §1"}, "[13]": {"molecular_target": "T4, human FGFR2 IIIc variant protein", "assay": "immunostaining of formalin-fixed, paraffin-embedded blocks of 293alpha cells forced to express FGFR2 IIIc; antibody at 15 ug/mL, heat retrieval", "remark": "listed apart in the source"}}}
{"binder": "rat anti-FGFR2 antibody FR2-2nd_#028 (antibody, V domains shown, Rat monoclonal from hybridoma; also called rat FR2-2nd_#028; rat antibody FR2-2nd_#028) VH: EVQLVESGGGLVQPGRSLKLSCAASGFTFSDYGMAWVRQAPTKGLEWVATISYDGSSTYYRDSVKGRFTISRENAKSTLSLQMDSLRSEDTATYYCTRHPTYYYIMDAWGQGASVTVSS VL: DTVLTQSPALAVSLGQRVTISCRASKSVSTFMNWYQQKSGQQPKLLIYRASNLESGVPSRFSGSGSGTDFTLTIDPVEADDIANYYCQQSNELPLTFGSGTKLEIKR", "values": [{"measurement": "binding result", "setting": "[1]", "value": "no binding (tested: 15 µg/mL)"}, {"measurement": "binding result", "setting": "[2]", "value": "no binding (tested: 15 µg/mL)"}, {"measurement": "binding result", "setting": "[3]", "value": "no binding (tested: 15 µg/mL)"}, {"measurement": "binding result", "setting": "[4]", "value": "binds"}]}
{"binder": "mouse chimeric anti-FGFR2 antibody FR2-2nd_#028 (antibody, mouse IgG1, kappa, V domains shown, The full-chain entries may include a secretory signal; also called mouse chimeric FR2-2nd_#028; mouse IgG1 chimeric FR2-2nd_#028) VH: EVQLVESGGGLVQPGRSLKLSCAASGFTFSDYGMAWVRQAPTKGLEWVATISYDGSSTYYRDSVKGRFTISRENAKSTLSLQMDSLRSEDTATYYCTRHPTYYYIMDAWGQGASVTVSS VL: DTVLTQSPALAVSLGQRVTISCRASKSVSTFMNWYQQKSGQQPKLLIYRASNLESGVPSRFSGSGSGTDFTLTIDPVEADDIANYYCQQSNELPLTFGSGTKLEIKR", "values": [{"measurement": "binding result", "setting": "[1]", "value": "no binding (tested: 15 µg/mL)"}, {"measurement": "binding result", "setting": "[3]", "value": "no binding (tested: 15 µg/mL)"}, {"measurement": "binding result", "setting": "[5]", "value": "no binding (tested: 5 µg/ml)"}, {"measurement": "binding result", "setting": "[6]", "value": "binds"}]}
{"binder": "rat anti-FGFR2 antibody FR2-2nd_#023 (antibody, V domains shown, Rat monoclonal from hybridoma; also called rat FR2-2nd_#023; rat antibody FR2-2nd_#023) VH: EVQLVESGGGLVQPGRSMKLSCAASGLTFSNYGMAWVRQAPKKGLEWVAFISHDGGSSYYRDSVEGRFIISRDNAKSTLSLQMDSLRSEDTATYYCTTAGDYYSDNDWYFDFWGPGIMVTVSS VL: DIQMTQSPSLLSASVGDRVTLSCKASQSIYNSLAWYQQKLGEAPKLLIYDADSLQTGIPSRFSGSGSGTDYTLTISSLQPEDVATYFCQKYYSGWTFGGGTKLELKR", "values": [{"measurement": "binding result", "setting": "[7]", "value": "no binding (tested: 15 µg/mL)"}, {"measurement": "binding result", "setting": "[8]", "value": "no binding (tested: 15 µg/mL)"}, {"measurement": "binding result", "setting": "[9]", "value": "binds"}, {"measurement": "binding result", "setting": "[10]", "value": "binds"}]}
{"binder": "mouse chimeric anti-FGFR2 antibody FR2-2nd_#023 (antibody, mouse IgG1, kappa, V domains shown, The full-chain entries may include a secretory signal; also called mouse chimeric FR2-2nd_#023; mouse IgG1 chimeric FR2-2nd_#023) VH: EVQLVESGGGLVQPGRSMKLSCAASGLTFSNYGMAWVRQAPKKGLEWVAFISHDGGSSYYRDSVEGRFIISRDNAKSTLSLQMDSLRSEDTATYYCTTAGDYYSDNDWYFDFWGPGIMVTVSS VL: DIQMTQSPSLLSASVGDRVTLSCKASQSIYNSLAWYQQKLGEAPKLLIYDADSLQTGIPSRFSGSGSGTDYTLTISSLQPEDVATYFCQKYYSGWTFGGGTKLELKR", "values": [{"measurement": "binding result", "setting": "[11]", "value": "binds"}, {"measurement": "binding result", "setting": "[12]", "value": "no binding (tested: 5 µg/ml)"}, {"measurement": "binding result", "setting": "[7]", "value": "no binding (tested: 15 µg/mL)"}, {"measurement": "binding result", "setting": "[13]", "value": "binds"}]}
